Laboratory results from patent WO2021212049A2.

Target: trimeric SARS-CoV-2 spike (residues 1-1213), 986PP987, furin sites disrupted, C-terminal foldon and hexahistidine tag (SARS-CoV-2) (UniProt P0DTC2)

With “2B04 Fab (papain-cleaved Fab form of 2B04)” the total buried surface area of the complex was 656 Å2.
